Laboratory results: the supplement of paper PMC9233669
Variants at the floor of the assay were thinned out.

Legend:
biotinyl-Val-oxazolone = assay: self-aminoacylation, catalytic enhancement (BVO) (fold over background); higher = more active; k-Seq, kA / k0A0; sequences stand for … in GGGAAUGGAUCCACAUCUACGAAUUC…UUCACUGCAGACUUGACGAAGCUG
In short: (§1)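 Mutagenized RNA pools (0.43 μM; 21-nt variable region) were treated with 2–1250 μM of each biotinyl-aminoacyl-oxazolone. Conditions were 50 μL HEPES/NaCl/KCl/MgCl2/CaCl2 buffer, 5% acetonitrile, pH 6.9–7.0, room temperature, 90 minutes. Catalytic enhancement, the median kA relative to the uncatalyzed rate, was derived from streptavidin capture, qPCR and Illumina sequencing.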

biotinyl-Met-oxazolone = assay: self-aminoacylation, catalytic enhancement (BMO) (fold over background); higher = more active; k-Seq, kA / k0A0; sequences stand for … in GGGAAUGGAUCCACAUCUACGAAUUC…UUCACUGCAGACUUGACGAAGCUG
In short: as §1

biotinyl-Phe-oxazolone = assay: self-aminoacylation, catalytic enhancement (BFO) (fold over background); higher = more active; k-Seq, kA / k0A0; sequences stand for … in GGGAAUGGAUCCACAUCUACGAAUUC…UUCACUGCAGACUUGACGAAGCUG
In short: as §1

biotinyl-Ile-oxazolone = assay: self-aminoacylation, catalytic enhancement (BIO) (fold over background); higher = more active; k-Seq, kA / k0A0; sequences stand for … in GGGAAUGGAUCCACAUCUACGAAUUC…UUCACUGCAGACUUGACGAAGCUG
In short: as §1

biotinyl-Leu-oxazolone = assay: self-aminoacylation, catalytic enhancement (BLO) (fold over background); higher = more active; k-Seq, kA / k0A0; sequences stand for … in GGGAAUGGAUCCACAUCUACGAAUUC…UUCACUGCAGACUUGACGAAGCUG
In short: as §1

biotinyl-Trp-oxazolone = assay: self-aminoacylation, catalytic enhancement (BWO) (fold over background); higher = more active; k-Seq, kA / k0A0; sequences stand for … in GGGAAUGGAUCCACAUCUACGAAUUC…UUCACUGCAGACUUGACGAAGCUG
In short: as §1

Sequence | self-aminoacylation (biotinyl-Val-oxazolone) | self-aminoacylation (biotinyl-Met-oxazolone) | self-aminoacylation (biotinyl-Phe-oxazolone) | self-aminoacylation (biotinyl-Ile-oxazolone) | self-aminoacylation (biotinyl-Leu-oxazolone) | self-aminoacylation (biotinyl-Trp-oxazolone)
CCUCACUUCAAGCGAUCGGUC [Fam1B.1 aminoacylation ribozyme variant] | 1.29 | 1.27 | 2.38 | 1.19 | 1.53 | 2.72
CCUCACUUCAAGUAAUCGGUC [Fam1B.1 aminoacylation ribozyme variant] | 0.821 | 0.949 | 14.2 | 1 | 1.17 | 8.32
CGACACUGCAAGCAAUCGGUC [Fam1B.1 aminoacylation ribozyme variant] | 1.47 | 1.26 | 1.4 | 1.52 | 1.37 | 1.82
CGACACUUCAAGCAAGCGGUC [Fam1B.1 aminoacylation ribozyme variant] | 0.939 | 1.27 | 0.837 | 1.09 | 1.23 | 1.21
CGACACUUCAAGCAAUCAGUC [Fam1B.1 aminoacylation ribozyme variant] | 0.822 | 0.774 | 13.2 | 0.815 | 0.903 | 4.25
CGACACUUCAAGCAAUCGCUC [Fam1B.1 aminoacylation ribozyme variant] | 1.96 | 1.64 | 2.06 | 2.1 | 2.26 | 2.2
CGACACUUCAAGCCAUCGGUC [Fam1B.1 aminoacylation ribozyme variant] | 1.59 | 1.17 | 0.589 | 1.3 | 1.17 | 1.9
CGACAGUUCAAGCAAUCGGUC [Fam1B.1 aminoacylation ribozyme variant] | 1.53 | 1.19 | 2.42 | 1.48 | 1.45 | 2.43
CGACGCUUCAAGCAAUCGGUC [Fam1B.1 aminoacylation ribozyme variant] | 1.35 | 1.07 | 22.7 | 1.2 | 1.58 | 16.7
CGACUUCAAACACUCGGUCUG [Fam1A.1 aminoacylation ribozyme variant] | 1.52 | 1.61 | 2.7 | 1.33 | 1.39 | 2.31
CGACUUCAACCAAUCGGUCUG [Fam1A.1 aminoacylation ribozyme variant] | 1.42 | 1.35 | 64.2 | 1.56 | 2.26 | 31.6
CGCCUUCAAACAAUCGGUCUG [Fam1A.1 aminoacylation ribozyme variant] | 1.8 | 1.94 | 146 | 1.59 | 3.13 | 55.5
CGGCUUCAAACAAUCGGUCUG [Fam1A.1 aminoacylation ribozyme variant] | 1.49 | 1.62 | 106 | 1.41 | 2.46 | 45.1
CUAACCCUGGUCAUCGAGUGA [Fam2.1 aminoacylation ribozyme variant] | 4.44 | 8.98 | 11.8 | 4.07 | 8.32 | 9.47
CUAACUCAAACAAUCGGUCUG [Fam1A.1 aminoacylation ribozyme variant] | 0.742 | 0.648 | 3.32 | 0.761 | 0.716 | 1.24
CUAAUUCAAAAAAUCGGUCUG [Fam1A.1 aminoacylation ribozyme variant] | 0.668 | 0.636 | 1.9 | 0.751 | 0.727 | 1.18
CUAAUUCAAACAACCGGUCUG [Fam1A.1 aminoacylation ribozyme variant] | 0.754 | 0.958 | 0.916 | 0.947 | 0.724 | 0.69
CUAAUUCAAACAAGCGGUCUG [Fam1A.1 aminoacylation ribozyme variant] | 0.972 | 1.1 | 0.798 | 0.874 | 0.847 | 0.632
CUAAUUCAAACAAUAGGUCUG [Fam1A.1 aminoacylation ribozyme variant] | 0.77 | 0.704 | 1.11 | 0.773 | 0.706 | 0.666
CUAAUUCAAACAAUCUGUCUG [Fam1A.1 aminoacylation ribozyme variant] | 0.665 | 0.64 | 1.1 | 0.784 | 0.525 | 0.748
CUAAUUCAAACAUUCGGUCUG [Fam1A.1 aminoacylation ribozyme variant] | 0.979 | 1.03 | 0.983 | 1.05 | 1.02 | 1.02

Sequence | self-aminoacylation (biotinyl-Val-oxazolone) | self-aminoacylation (biotinyl-Met-oxazolone) | self-aminoacylation (biotinyl-Phe-oxazolone) | self-aminoacylation (biotinyl-Ile-oxazolone) | self-aminoacylation (biotinyl-Leu-oxazolone) | self-aminoacylation (biotinyl-Trp-oxazolone)
CUAAUUCAAACGAUCGGUCUG [Fam1A.1 aminoacylation ribozyme variant] | 0.648 | 0.696 | 0.8 | 0.689 | 0.72 | 0.656
CUAAUUUAAACAAUCGGUCUG [Fam1A.1 aminoacylation ribozyme variant] | 0.872 | 0.866 | 0.662 | 0.9 | 0.791 | 0.6
CUACACUCCAAGCAAUCGGUC [Fam1B.1 aminoacylation ribozyme variant] | 0.934 | 0.76 | 2.74 | 0.949 | 0.747 | 1.22
CUACACUUCAAGCAAGCGGUC [Fam1B.1 aminoacylation ribozyme variant] | 0.637 | 0.62 | 0.583 | 0.719 | 0.772 | 0.541
CUACACUUCACGCAAUCGGUC [Fam1B.1 aminoacylation ribozyme variant] | 0.888 | 0.777 | 0.68 | 0.801 | 0.758 | 0.895
CUACACUUGAAGCAAUCGGUC [Fam1B.1 aminoacylation ribozyme variant] | 0.64 | 0.597 | 0.507 | 0.662 | 0.583 | 0.509
CUACAUCAAACAAACGGUCUG [Fam1A.1 aminoacylation ribozyme variant] | 0.901 | 1 | 1.01 | 1.07 | 0.771 | 1.09
CUACAUCAAACAAUCGGUCAG [Fam1A.1 aminoacylation ribozyme variant] | 0.714 | 0.759 | 0.912 | 0.629 | 0.56 | 0.586
CUACAUCAAACAAUCGGUCGG [Fam1A.1 aminoacylation ribozyme variant] | 0.981 | 0.954 | 1.36 | 0.773 | 1.16 | 0.994
CUACAUCAAACAAUCGGUUUG [Fam1A.1 aminoacylation ribozyme variant] | 0.821 | 0.646 | 1.9 | 0.906 | 0.781 | 1.05
CUACAUCAAACGAUCGGUCUG [Fam1A.1 aminoacylation ribozyme variant] | 0.93 | 0.657 | 0.836 | 0.728 | 0.78 | 0.778
CUACCUCAAACAAUCGGUCAG [Fam1A.1 aminoacylation ribozyme variant] | 0.873 | 1.01 | 1.33 | 0.808 | 1.01 | 0.767
CUACCUCAAACAAUCGGUCCG [Fam1A.1 aminoacylation ribozyme variant] | 1.18 | 1.15 | 1.05 | 1.04 | 1.9 | 1.2
CUACCUCAAACAAUCGGUCUC [Fam1A.1 aminoacylation ribozyme variant] | 1.07 | 0.879 | 2.7 | 0.869 | 0.752 | 1.42
CUACCUCAAAGAAUCGGUCUG [Fam1A.1 aminoacylation ribozyme variant] | 1.07 | 1.15 | 1.97 | 1.07 | 0.749 | 1.53
CUACCUCACACAAUCGGUCUG [Fam1A.1 aminoacylation ribozyme variant] | 1.06 | 0.672 | 1.81 | 0.861 | 0.988 | 0.744
CUACGACAAACAAUCGGUCUG [Fam1A.1 aminoacylation ribozyme variant] | 0.654 | 0.713 | 1.69 | 0.748 | 0.655 | 0.855
CUACGUCAAACAAUCGAUCUG [Fam1A.1 aminoacylation ribozyme variant] | 0.794 | 0.903 | 0.827 | 0.801 | 0.617 | 1.06
CUACGUCAAACAAUCGGGCUG [Fam1A.1 aminoacylation ribozyme variant] | 2.33 | 2.42 | 0.86 | 1.9 | 2.05 | 2.32
CUACGUCAAACAAUCGGUAUG [Fam1A.1 aminoacylation ribozyme variant] | 1.12 | 1.39 | 1.02 | 1.12 | 1.11 | 1.53
CUACGUCAAACACUCGGUCUG [Fam1A.1 aminoacylation ribozyme variant] | 2.18 | 1.6 | 10.9 | 1.85 | 1.83 | 2.65
